Measurements taken from patent CN116574187A (ZHEJIANG SHIMAI PHARMACEUTICAL CO LTD, dated 2023).

Assays:
[1] = target: 细胞表面表达的GUCY2C (HT55, SW948, LS174T-GUCY2C, HT1080-GUCY2C细胞) (human, UniProt P25092 24-1073); test: cell-based or functional assay
[2] = target: T1, 人GUCY2C蛋白(His标签) (human, UniProt P25092 24-430); test: ELISA, coated human GUCY2C protein, anti-Fc HRP detection
T1 construct: Bought from ACRO; also called 重组人GUCY2C; human GUCY2C protein (His tag); not shown: His tag

[3] = target: T1, 人GUCY2C蛋白(His标签); test: ELISA, coated human GUCY2C protein
[4] = target: T2, 人CD3蛋白 (human); test: ELISA, coated human CD3 protein
T2 construct: Bought from ACRO; also called 重组人CD3; human CD3 protein (Fc标签)
T2 sequence (P07766 23-126): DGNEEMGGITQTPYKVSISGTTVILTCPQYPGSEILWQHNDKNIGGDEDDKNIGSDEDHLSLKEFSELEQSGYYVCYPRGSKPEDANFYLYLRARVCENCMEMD

[5] = target: CD3 on TCR/CD3效应细胞 (Jurkat-NFAT-CD3) (human); test: cell-based or functional assay
CD3 on TCR/CD3效应细胞 (Jurkat-NFAT-CD3) (human), sequence (chain, as listed by the source): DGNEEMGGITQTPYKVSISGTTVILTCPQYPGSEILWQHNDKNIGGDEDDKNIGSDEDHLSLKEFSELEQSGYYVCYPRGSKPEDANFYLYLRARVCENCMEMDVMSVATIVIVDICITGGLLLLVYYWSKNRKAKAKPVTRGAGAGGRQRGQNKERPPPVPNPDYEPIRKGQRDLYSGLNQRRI

细胞表面表达的GUCY2C (HT55, SW948, LS174T-GUCY2C, HT1080-GUCY2C细胞), sequence (P25092 24-1073): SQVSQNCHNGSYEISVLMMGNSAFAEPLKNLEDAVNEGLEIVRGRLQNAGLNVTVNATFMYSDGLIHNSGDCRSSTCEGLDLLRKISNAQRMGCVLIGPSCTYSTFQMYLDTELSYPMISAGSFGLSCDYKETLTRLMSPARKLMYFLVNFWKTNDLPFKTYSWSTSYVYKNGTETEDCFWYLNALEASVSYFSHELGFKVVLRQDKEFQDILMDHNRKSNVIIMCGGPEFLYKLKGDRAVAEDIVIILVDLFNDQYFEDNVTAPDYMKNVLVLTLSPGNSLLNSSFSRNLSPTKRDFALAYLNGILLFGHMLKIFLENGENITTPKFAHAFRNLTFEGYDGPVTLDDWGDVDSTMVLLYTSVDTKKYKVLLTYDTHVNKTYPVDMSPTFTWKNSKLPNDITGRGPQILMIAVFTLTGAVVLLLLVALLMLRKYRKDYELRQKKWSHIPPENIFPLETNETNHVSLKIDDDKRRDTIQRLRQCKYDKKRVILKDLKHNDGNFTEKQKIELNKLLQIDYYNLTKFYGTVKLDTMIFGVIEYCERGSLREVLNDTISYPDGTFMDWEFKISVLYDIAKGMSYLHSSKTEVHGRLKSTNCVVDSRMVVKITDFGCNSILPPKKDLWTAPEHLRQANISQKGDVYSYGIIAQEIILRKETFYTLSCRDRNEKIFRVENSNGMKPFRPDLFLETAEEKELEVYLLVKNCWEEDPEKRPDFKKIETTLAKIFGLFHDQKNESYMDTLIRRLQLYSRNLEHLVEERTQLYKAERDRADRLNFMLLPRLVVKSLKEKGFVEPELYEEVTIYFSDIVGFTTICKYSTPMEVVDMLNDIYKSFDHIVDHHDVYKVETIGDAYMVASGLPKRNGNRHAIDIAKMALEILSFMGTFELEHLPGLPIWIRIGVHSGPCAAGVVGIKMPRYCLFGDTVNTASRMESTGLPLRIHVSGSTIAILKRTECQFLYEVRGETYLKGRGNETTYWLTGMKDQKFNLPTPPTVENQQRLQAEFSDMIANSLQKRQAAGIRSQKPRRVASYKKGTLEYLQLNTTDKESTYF
T1 sequence (P25092 24-430 limits assumed): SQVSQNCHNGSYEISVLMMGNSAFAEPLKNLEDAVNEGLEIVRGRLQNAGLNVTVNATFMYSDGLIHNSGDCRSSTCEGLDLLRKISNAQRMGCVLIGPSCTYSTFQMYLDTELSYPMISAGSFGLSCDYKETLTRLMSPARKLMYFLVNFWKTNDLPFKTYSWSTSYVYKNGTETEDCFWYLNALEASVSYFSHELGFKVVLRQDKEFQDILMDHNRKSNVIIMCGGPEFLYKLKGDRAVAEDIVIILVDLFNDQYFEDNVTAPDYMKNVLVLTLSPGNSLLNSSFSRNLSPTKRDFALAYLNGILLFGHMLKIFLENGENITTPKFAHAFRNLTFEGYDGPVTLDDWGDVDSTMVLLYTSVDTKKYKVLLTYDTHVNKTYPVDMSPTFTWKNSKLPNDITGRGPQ

B1: GCC-56C9M mAb (antibody, human IgG1, kappa)
heavy: not shown
light: QIVLTQSPAIMSVSPGEKVTITCSASSSVSYIHWFQQRPGTSPKLWIYSTSNLASGVPARFSGSGSGTSYSLTISRMEAEDAATYYCQQRSSYPLTFGTGTKLELKRTVAAPSVFIFPPSDEQLKSGTASVVCLLNNFYPREAKVQWKVDNALQSGNSQESVTEQDSKDSTYSLSSTLTLSKADYEKHKVYACEVTHQGLSSPVTKSFNRGEC
notes: Chimeric full IgG1: Fab of mouse clone 56C9 fused to human IgG1 Fc; expressed in CHO-S cells; also called 抗GUCY2C mAb; 抗GUCY2C单克隆抗体
- ADCC reporter: activation of Jurkat-CD16a cells in the presence of HT1080-GUCY2C cells (luciferase), EC50 [1]: ~0.0247 mg/L
- EC50 [2]: 0.193 mg/L

B2: GCC-56C9H4-M6MV1-1 (bispecific antibody, human IgG1, kappa)
light: EVQLVESGGGLVKPGGSLRLSCAASGFTFSSYAMTWVRQTPEKRLEWVATMSSGGGYTYYLDSVKGRFTISRDNAKNTLYLQMSSLRADDTAVYYCARHNYGYNYAMDYWGQGTLVTVSSGGGGSGGGGSGGGGSEIVLTQSPAIQSVSPGEKVTITCSASSSVSYIHWYQQRPGKAPKLLIYSTSNLASGVPARFSGSGSGTDFSLTISRLQAEDAATYYCQQRSSYPLTFGQGTKLEIKGSGGGGSGGGGSEIVVTQSPATLSVSPGERATLSCRSSTGAVTTSNYANWVQQKPGQAPRGLIGGANKRAPGVPARFSGSLSGDEATLTISSLQSEDFAVYYCALWYSNLWVFGQGTKLEIKRTVAAPSVFIFPPSDEQLKSGTASVVCLLNNFYPREAKVQWKVDNALQSGNSQESVTEQDSKDSTYSLSSTLTLSKADYEKHKVYACEVTHQGLSSPVTKSFNRGECGGSGSCPPCPAPEAAGAPSVFLFPPKPKDTLMISRTPEVTCVVVDVSHEDPEVKFNWYVDGVEVHNAKTKPREEQYNSTYRVVSVLTVLHQDWLNGKEYKCKVSNKALGAPIEKTISKAKGQPREPQVYTLPPSRDELTKNQVSLLCLVKGFYPSDIAVEWESNGQPENNYKTTPPVLDSDGSFFLHSKLTVDKSRWQQGNVFSCSVMHEALHNHYTQKSLSLSPG
heavy: EVQLVESGGGLVQPGGSLRLSCAASGFTFNTYAMNWVRQAPGKGLEWVARIRSKYNNYATYYADSVKGRFTISRDDSKNTLYLQMNSLRAEDTAVYYCARHGNFGSSYVSYFAYWGQGTTVTVSSASTKGPSVFPLAPSSKSTSGGTAALGCLVKDYFPEPVTVSWNSGALTSGVHTFPAVLQSSGLYSLSSVVTVPSSSLGTQTYICNVNHKPSNTKVDKKVEPKSCDKTHTCPPCPAPEAAGAPSVFLFPPKPKDTLMISRTPEVTCVVVDVSHEDPEVKFNWYVDGVEVHNAKTKPREEQYNSTYRVVSVLTVLHQDWLNGKEYKCKVSNKALGAPIEKTISKAKGQPREPQVYTLPPSRDELTKNQVSLLCLVKGFYPSDIAVEWESNGQPENNYKTTPPVLDSDGSFFLHSKLTVDKSRWQQGNVFSCSVMHEALHNHYTQKSLSLSPG
notes: Heterodimer of a 'light chain' (humanised anti-GUCY2C scFv - linker - anti-CD3 hSP34 VL-CL - mFc7.2) and a 'heavy chain' (anti-CD3 VH-CH1 - mFc7.2); expressed in 293FS or CHO-S cells; also called GUCY2C×CD3 IBiTE
- EC50 [3]: 0.14 mg/L
- EC50 [4]: 0.116 mg/L
- T cell activation: Jurkat-NFAT-CD3 luciferase reporter with HT55 target cells, EC50 [5]: ~0.374 mg/L
- T cell activation: Jurkat-NFAT-CD3 luciferase reporter with LS174T-GUCY2C target cells, EC50 [5]: ~0.335 mg/L
- T cell activation: Jurkat-NFAT-CD3 luciferase reporter with SW948 target cells, EC50 [5]: ~0.519 mg/L
- T cell activation: Jurkat-NFAT-CD3 luciferase reporter with HT55 target cells, EC50 [1]: ~0.374 mg/L
- T cell activation: Jurkat-NFAT-CD3 luciferase reporter with LS174T-GUCY2C target cells, EC50 [1]: ~0.335 mg/L
- T cell activation: Jurkat-NFAT-CD3 luciferase reporter with SW948 target cells, EC50 [1]: ~0.519 mg/L
- killing of HT55 cells with human PBMC (CCK8), EC50 [1]: 0.0152 mg/L
- killing of LS174T-GUCY2C cells with human PBMC (CCK8), EC50 [1]: 0.00274 mg/L
- killing of SW948 cells with human PBMC (CCK8), EC50 [1]: 0.012 mg/L
